Measurements: article PMC2941470

Target: endogenous DDX3X from HuH-7 cells (human (endogenous in HuH-7)) (UniProt O00571)
Chain of UniProt O00571 (O00571 whole entry): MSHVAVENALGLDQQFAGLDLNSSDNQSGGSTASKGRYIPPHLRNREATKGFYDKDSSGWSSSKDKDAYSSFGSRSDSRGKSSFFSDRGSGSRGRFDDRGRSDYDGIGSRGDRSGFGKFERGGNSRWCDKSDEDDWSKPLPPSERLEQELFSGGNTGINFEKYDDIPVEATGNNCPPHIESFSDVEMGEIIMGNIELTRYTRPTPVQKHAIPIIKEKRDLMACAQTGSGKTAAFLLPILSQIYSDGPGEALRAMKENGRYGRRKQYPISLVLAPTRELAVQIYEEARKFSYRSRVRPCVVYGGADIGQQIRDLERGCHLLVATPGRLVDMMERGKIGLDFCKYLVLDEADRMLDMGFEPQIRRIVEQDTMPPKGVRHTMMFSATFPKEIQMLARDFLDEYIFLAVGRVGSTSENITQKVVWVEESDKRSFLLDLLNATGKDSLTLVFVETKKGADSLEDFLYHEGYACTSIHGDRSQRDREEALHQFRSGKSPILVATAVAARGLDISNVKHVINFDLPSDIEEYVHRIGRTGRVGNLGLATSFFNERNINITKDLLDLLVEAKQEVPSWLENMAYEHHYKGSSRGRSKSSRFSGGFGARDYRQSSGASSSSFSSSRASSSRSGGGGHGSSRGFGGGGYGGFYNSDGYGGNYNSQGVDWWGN

## GFP fusion to HCV core protein residues 16–36 (peptide)
  level of HCV replicon NNeo/C-5B RNA in HuH-7 cells 48 h after transient transfection (Northern blot): 50%
